According to the supplement of paper PMC7125110:
± gives the standard error. Variants at the floor of the assay were thinned out.

B1: glmS ribozyme (parent)
chain: AUAAAAGCGCCAGAACUACAGAAAUGUAGUUGACGAGGAGGAGGUUUAUCGAAUUUUCGGCGGAUGCCUCCAAA

Variants of: B1
Assay: self-cleavage kobs at 2500 uM GlcN6P; higher = faster cleavage; RNA array
Details: with glucosamine-6-phosphate
How it was run: (§1)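 Tiles bearing barcoded ribozyme variants, transcribed in situ by E. coli RNA polymerase on sequenced MiSeq chips, were imaged over ~14 h at 37 °C using a hybridised Cy3 probe. Glucosamine-6-phosphate was supplied at 40 μM to 10 mM in HEPES/KCl/Mg(OAc)2 buffer. kobs came from one- or two-exponential decay fits to normalised per-tile medians, and weighted Michaelis–Menten fits then provided kcat and KM.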

Variant | self-cleavage kobs at 2500 uM GlcN6P [s⁻¹]
AUAAAAGCGCCAAAACUACAGAAAUGUAGUUGACGAGGAGGAGGUCUAUCGAAUUUUCGACGGAUGCCUCCAAA | < 1e-05
AUAAAAGCGCCAUAACUACAGAAAUGUAGCUCACGAGGAGGAGGUUUAUCGAAUUUUCGGCGGAUGCCUCCAAA | 6.71e-05 ± 2.9e-05
AUAAAAGCGCCAAAACUACAGAAAUGUAGUUGACGAGGAGGAGGUUUAUCCAAUUUUCGGCGGAUGGCUCCAAA | < 1e-05
AUAAAAGCGCCUGAACUACAGAAAUGUAGUUGACGAGGAGGAGGUUUAGCGAAUUUUCCGCGGAUGCCUCCAAA | < 1e-05
AUAAAAGCGCCAAAACUACAGAAAUGUAGUUCACGAGGAGGAGGUUUAUCGAACUUUCGGCGGAUGCCUCCAAA | 0.000273 ± 9.2e-05
AUAAAAGCGCCAUAACUACAGAAAUGUAGUUGACGAGGAGGAUGUUUAUCGAAUUUUCGGCGUAUGCCUCCAAA | < 1e-05
AUAAAAGCGCCAGCGCUACAGAAAUGUAGUUGACGAGGAGGAGGUCUAUCGAAUUUUCGGGGGAUGCCUCCAAA | < 1e-05
AUAAAAGCGCCACAACUACAGAAAUGUAUUUGACGAGGAGGAGGUUUAUAGAAUUCUCGGCCGAUGCCACCAAA | 0.000141 ± 5.2e-05
AUAAAAGCGCCAUAACUACAGAAAUGUAGUUGACGAGGAGGAGGUUUAUCGAAUGUUCGGCGGAUGACUCCAAA | 8.05e-05 ± 1.9e-05
AUAAAAGCGCCUGAACUACAGAAAUGUAGUCGACGAGGAGGAGUUUUAUCGAAUUUUCGGCGGAUGACUCCAAA | 0.00303 ± 0.001
AUAAAAGCGCCAAAACUACAGAAAUGUAGUUGACGAGGUGGAGGUUUAUCGAAUUUUCGGCGGUUGCCUCCAAA | < 1e-05
AUAAAAGCGCCACACCUACAGAAAUGUAGUUUACGAGGAGGAGAUUUAUCGAAUUUUCUGCGGAUGCCUCCAAA | < 1e-05
AUAAAAGCGCCAAAACUACAGAAAUGUAGUUCACGAGGAGGAGGGUUAUCGAAUUUUCGGCGGAUGCCUCCAAA | 4.68e-05 ± 1.9e-05
AUAAAAGCGCCUGAACUACAGAAAUGUAGUUGACAAGGGGGAGGCUUAUCGAAUUUUCGGUGGAUGCCUCCAAA | < 1e-05
AUAAAAGCGCCUGACCUACAGAAAUGUAGUUGACGAGGAGCAGGUUUAUCGAAUUUUCGGUGGAUACCUCCAAA | < 1e-05
AUAAAAGCGCCAUAUCUACAGAAAUGUAGGUGACGAGGAGGAGGUUUAUCGAAUUUUCCGCGGAUGCCUCCAAA | < 1e-05
AUAAAAGCGCCACAACUACAGAAAUGUAGUUGACGCGGAGGAGGUUUAUCGAAUUUUCGGCGGAUGCCUCUAAA | < 1e-05
AUAAAAGCGCCACAACUACAGAAAUGUAGUUGACGAGGAGGAGGUUUAUCGAAUUUUGAGCGGAUGCCUCCAAA | < 1e-05

Variant | self-cleavage kobs at 2500 uM GlcN6P [s⁻¹]
AUAAAAGCGCCUGAACUACAGAAAUGUAGUUGACGAGGAGGAGGUUUAUCGAAUUUCCGGCGGAUGCCUCGAAA | 0.000242 ± 0.00011
AUAAAAGCGCCUGAACUACAGAAAUGUAGUUGACGAGGUGGAGGUUUAUCGAAUUUUCGGCGAAUGCCUCCAAA | < 1e-05
AUAAAAGCGCCAAAACUACAGAAAUGUAGUUUACCAGGCGGAGGUUUAUCGAAUUUUCGGCGGAUGCCUCCAAA | < 1e-05
AUAAAAGCGCCGGAACUACAGAAAUGUAGUUGACGAGGAGGAGGUUUAUCGAAUUCUCGGCGGAUGUCUCCAAA | < 1e-05
AUAAAAGCGCCAAAACUACAGAAAUGUAGGUGACGAGGAGGAGGUUUAUCGAUUUUUCGGCGGAUGCCUCCAAA | 0.000141 ± 4.4e-05
AUAAAAGCGCCUGAACUACAGAAAUGUAGUUGACGAGGAAGAGGUUUAUCGAAUUUACGGCGGCUGCCUCCAAA | < 1e-05
AUAAAAGCGCCAAAACUACAGAAAUGUAGUUGACGAGGAGGAGGGUUAUCGAAUUUUCGGCGGGUGCCUCCAAA | 6.3e-05 ± 1.9e-05
AUAAAAGCGCCACACCUACAGAAAUGUAGUUGACGAGGAGGAGGUUUAUCGAAUUUUCAGCGGAUGCCUCCAAA | < 1e-05
AUAAAAGCGCCAUAACUACAGAAAUGUAGUUGACGAGGAGGAGGUUAAUCGAAUUGUCGGCGGAUGCCUCCAAA | 0.000242 ± 6e-05
AUAAAAGCGCCAUAACUACAGAAAUGUAGUUGACGAUGAGGAGGUUUAUCGAAUGUUCGGCGGAUUCCUCCAAA | < 1e-05
AUAAAAGCGCCACAACUACAGAAAUGUAGUUGACGAGGAGGAGGUUUAUCGAAUUUUCGGAGGAUGCCUCCAAA | < 1e-05
AUAAAAGCGCCAUAACUACAGAAAUGUACUUGACGAGGACGAGGUUUAUUGCAUUUUCGGCGGAUGCCUCCAAA | < 1e-05
AUAAAAGCGCCAGCACUACAGAAAUGUAGUUGACGAGGUGGAUGUUUAUCGAAUUUUCGGCGGUUGCCUCCAAA | < 1e-05
AUAAAAGCGCCUGAACUACAGAAAUGUAGUUGACGAGGAGUAGGUCUAUCGAAUUUUCGGCGGAUGCCUCCAAA | 9.28e-05 ± 3.6e-05
AUAAAAGCGCCGGAACUACAGAAAUGUAGUUGACGAGGAGGAGGUUUAUCGAAUUACCGGCGGAUGCCUCCAAA | < 1e-05
AUAAAAGCGCCAAAACUACAGAAAUGUAGUUGACGAGGAGGAGGUUUAUCGUACUUUCGGCGGAUGCCUCCAAA | < 1e-05
AUAAAAGCGCCAAACCUACAGAAAUGUAGUUGACGAGGAGGAGGUUUAUGGAAUUUUCGGCGGAUGCCUACAAA | 0.000129 ± 2.5e-05
AUAAAAGCGCCACAACUACAGAAAUGUAGUUGACGAGGAGGAGGACUAUCGAAUUUUCGGCGGAUGCCUCCAAA | 5.29e-05 ± 1.6e-05

Variants of: B1
Assay: self-cleavage kobs at 10000 uM GlcN6P; higher = faster cleavage; RNA array
Details: with glucosamine-6-phosphate
How it was run: as §1

Variant | self-cleavage kobs at 10000 uM GlcN6P [s⁻¹]
AUAAAAGCGCCAUAACUACAGAAAUGUAGUUGACGAGGAGGAGGUUAAUCGAAUUGUCGGCGGAUGCCUCCAAA | 0.000374 ± 6.2e-05
